Results reported in paper PMC5716075, “Conserved asymmetry underpins homodimerization of Dicer-associated double-stranded RNA-binding proteins” (Nucleic Acids Research, 2017).

T1: full length (FL) PACT (protein activator of PKR) (human), O75569
T1 chain: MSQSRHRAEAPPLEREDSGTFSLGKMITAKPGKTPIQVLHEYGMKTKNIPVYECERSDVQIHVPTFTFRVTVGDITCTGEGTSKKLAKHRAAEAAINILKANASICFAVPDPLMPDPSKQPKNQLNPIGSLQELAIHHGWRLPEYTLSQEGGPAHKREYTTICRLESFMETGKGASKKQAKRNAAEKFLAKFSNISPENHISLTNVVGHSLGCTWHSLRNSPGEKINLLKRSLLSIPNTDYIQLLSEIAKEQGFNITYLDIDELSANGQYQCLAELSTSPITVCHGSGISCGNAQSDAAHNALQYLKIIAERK

B1: full length (FL) PACT (protein activator of PKR), O75569 1-313 (natural protein)
chain: T1 chain
B2: PACT-D3 (PACT residues 239-313, core dsRBD 3), wild type (domain or fragment, human, UniProt O75569 239-313, looked up)
chain: TDYIQLLSEIAKEQGFNITYLDIDELSANGQYQCLAELSTSPITVCHGSGISCGNAQSDAAHNALQYLKIIAERK
notes: Grown in M9 with 15N ammonium chloride (and 13C glucose for 3D NMR samples); also called WT PACT-D3; source: E. coli BL21 (DE3), purified (HisTrap, tag removed with 3C protease, Superdex S75); not shown: His6, N-terminal, cleaved; MBP, N-terminal, cleaved
B3: PACT-Ext-D3 (PACT residues 208-313, dsRBD 3 with the conserved N-terminal extension), wild type (domain or fragment, human, UniProt O75569 208-313, looked up)
chain: GHSLGCTWHSLRNSPGEKINLLKRSLLSIPNTDYIQLLSEIAKEQGFNITYLDIDELSANGQYQCLAELSTSPITVCHGSGISCGNAQSDAAHNALQYLKIIAERK
notes: also called WT PACT-Ext-D3; source: E. coli BL21 (DE3), purified (HisTrap, tag removed with 3C protease, Superdex S75); not shown: His6, N-terminal, cleaved; MBP, N-terminal, cleaved
B4: Loqs-D3 (Loquacious residues 392-463, dsRBD 3), wild type (domain or fragment, Drosophila, UniProt Q9VJY9 392-463, looked up)
chain: IDYIKLLGEIATENQFEVTYVDIEEKTFSGQFQCLVQLSTLPVGVCHGSGPTAADAQRHAAQNALEYLKIMT
notes: Loquacious (Loqs), Drosophila, residues 392-463 (dsRBD 3, Type B); also called WT Loqs-D3; source: E. coli BL21 (DE3), purified (GSTrap, tag removed with tobacco etch virus protease, size exclusion)
B5: R353H,R354N TRBP-Ext-D3 (PACT-like variant of TRBP-Ext-D3) (domain or fragment, human, UniProt Q15633 258-366, looked up)
chain: NRGPGCTWDSLRNSVGEKILSLRSCSLGSLGALGPACCRVLSELSEEQAFHVSYLDIEELSLSGLCQCLVELSTQPATVCHGSATTREAARGEAAHNALQYLKIMAGSK
notes: source: E. coli BL21 (DE3), purified (HisTrap, tag removed with 3C protease, Superdex S75); not shown: His6, N-terminal, cleaved; MBP, N-terminal, cleaved

What was measured:
[1] = molecular target: T1, full length (FL) PACT (protein …); assay: SEC-MALS; SEC-MALLS; Superdex S75 10/30 (except where otherwise noted), 20 mM MES pH 6.5, 200 mM NaCl, 1 mM dithiothreitol, 0.5 ml/minute; 100 μl of protein at 2–5 mg/ml injected; details: remark: other sources report otherwise
[2] = molecular target: the molecule itself; assay: as above

| Binder | stoichiometry N [1] | stoichiometry N [2] |
| --- | --- | --- |
| B1 | 2 |  |
| B2 |  | 2 |
| B3 |  | 2 |
| B4 |  | 2 |
| B5 |  | 2 |
